From the supplement of paper PMC11908140

B1: library; numbered along this chain (parent)
chain: MRKPRAAVGSGHRKQAASQEGRQKHAKNNSQAKPSACDGLARQPEEVVLQASVSSYHLFRDVAEVTAFRGSLLSWYDQEKRDLPWRRRAEDEMDLDRRAYAVWVSEVMLQQTQVATVINYYTGWMQKWPTLQDLASASLEEVNQLWAGLGYYSRGRRLQEGARKVVEELGGHMPRTAETLQQLLPGVGRYTAGAIASIAFGQATGVVDGNVARVLCRVRAIGADPSSTLVSQQLWGLAQQLVDPARPGDFNQAAMELGATVCTPQRPLCSQCPVESLCRARQRVEQEQLLASGSLSGSPDVEECAPNTGQCHLCLPPSEPWDQTLGVVNFPRKASRKPPREESSATCVLEQPGALGAQILLVQRPNSGLLAGLWEFPSVTWEPSEQLQRKALLQELQRWAGPLPATHLRHLGEVVHTFSHIKLTYQVYGLALEGQTPVTTVPPGARWLTQEEFHTAAVSTAMKKVFRVYQGQQPGTCMGSKRSQVSSPCSRKKPRMGQQVLDNFFRSHISTDAHSLNSAAQ

Variants of: B1
Test: 8OG:A repair function score (normalized; synonymous = 0, nonsense = -1) (normalized log-likelihood score); higher = more repair activity (WT-like)
Conditions: with 8OG:A DNA repair reporter (GFP) in HEK-293 MUTYH KO cells
Description: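 Saturation mutagenesis (NNN codon scan) of the MUTYH cDNA (521-aa nuclear isoform NM_001048174.1 / NP_001041639), stably expressed under doxycycline induction in HEK-293 MUTYH knockout cells. Cells were co-transfected with an 8OG:A-bearing GFP repair reporter plus mCherry and sorted 72 h later into GFP+ and GFP− bins, three replicates per tile. The Rosace log2 enrichment (GFP+ vs GFP−) was converted per tile to a normalized function score with synonymous variants centered at 0 and nonsense variants (codons 1-471) at -1; low-abundance variants were removed.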

Point of comparison: MRKPRAAVGSGHRKQAASQEGRQKHAKNNSQAKPSACDGLARQPEEVVLQASVSSYHLFRDVAEVTAFRGSLLSWYDQECRDLPWRRRAEDEMDLDRRAYAVWVSEVMLQQTQVATVINYYTGWMQKWPTLQDLASASLEEVNQLWAGLGYYSRGRRLQEGARKVVEELGGHMPRTAETLQQLLPGVGRYTAGAIASIAFGQATGVVDGNVARVLCRVRAIGADPSSTLVSQQLWGLAQQLVDPARPGDFNQAAMELGATVCTPQRPLCSQCPVESLCRARQRVEQEQLLASGSLSGSPDVEECAPNTGQCHLCLPPSEPWDQTLGVVNFPRKASRKPPREESSATCVLEQPGALGAQILLVQRPNSGLLAGLWEFPSVTWEPSEQLQRKALLQELQRWAGPLPATHLRHLGEVVHTFSHIKLTYQVYGLALEGQTPVTTVPPGARWLTQEEFHTAAVSTAMKKVFRVYQGQQPGTCMGSKRSQVSSPCSRKKPRMGQQVLDNFFRSHISTDAHSLNSAAQ [K80C], “8OG:A repair function score” value -0.0206. Against it:
- MRKPRAAVGSGHRKQAASQEGRQKHAKNNSQAKPSACDGLARQPEEVVLQASVSSYHLFRDVAEVTAFRGSLLSWYDQSKRDLPWRRRAEDEMDLDRRAYAVWVSEVMLQQTQVATVINYYTGWMQKWPTLQDLASASLEEVNQLWAGLGYYSRGRRLQEGARKVVEELGGHMPRTAETLQQLLPGVGRYTAGAIASIAFGQATGVVDGNVARVLCRVRAIGADPSSTLVSQQLWGLAQQLVDPARPGDFNQAAMELGATVCTPQRPLCSQCPVESLCRARQRVEQEQLLASGSLSGSPDVEECAPNTGQCHLCLPPSEPWDQTLGVVNFPRKASRKPPREESSATCVLEQPGALGAQILLVQRPNSGLLAGLWEFPSVTWEPSEQLQRKALLQELQRWAGPLPATHLRHLGEVVHTFSHIKLTYQVYGLALEGQTPVTTVPPGARWLTQEEFHTAAVSTAMKKVFRVYQGQQPGTCMGSKRSQVSSPCSRKKPRMGQQVLDNFFRSHISTDAHSLNSAAQ [E79S] — higher, -0.00165
- MRKPRAAVGSGHRKQAASQEGRQKHAKNNSQAKPSACDGLARQPEEVVLQASVSSYHLFRDVAEVTAFRGSLLSWYDQVKRDLPWRRRAEDEMDLDRRAYAVWVSEVMLQQTQVATVINYYTGWMQKWPTLQDLASASLEEVNQLWAGLGYYSRGRRLQEGARKVVEELGGHMPRTAETLQQLLPGVGRYTAGAIASIAFGQATGVVDGNVARVLCRVRAIGADPSSTLVSQQLWGLAQQLVDPARPGDFNQAAMELGATVCTPQRPLCSQCPVESLCRARQRVEQEQLLASGSLSGSPDVEECAPNTGQCHLCLPPSEPWDQTLGVVNFPRKASRKPPREESSATCVLEQPGALGAQILLVQRPNSGLLAGLWEFPSVTWEPSEQLQRKALLQELQRWAGPLPATHLRHLGEVVHTFSHIKLTYQVYGLALEGQTPVTTVPPGARWLTQEEFHTAAVSTAMKKVFRVYQGQQPGTCMGSKRSQVSSPCSRKKPRMGQQVLDNFFRSHISTDAHSLNSAAQ [E79V] — higher, -0.000865
- MRKPRAAVGSGHRKQAASQEGRQKHAKNNSQAKPSACDGLARQPEEVVLQASVSSYHLFRDVAEVTAFRGSLLSWYDQWKRDLPWRRRAEDEMDLDRRAYAVWVSEVMLQQTQVATVINYYTGWMQKWPTLQDLASASLEEVNQLWAGLGYYSRGRRLQEGARKVVEELGGHMPRTAETLQQLLPGVGRYTAGAIASIAFGQATGVVDGNVARVLCRVRAIGADPSSTLVSQQLWGLAQQLVDPARPGDFNQAAMELGATVCTPQRPLCSQCPVESLCRARQRVEQEQLLASGSLSGSPDVEECAPNTGQCHLCLPPSEPWDQTLGVVNFPRKASRKPPREESSATCVLEQPGALGAQILLVQRPNSGLLAGLWEFPSVTWEPSEQLQRKALLQELQRWAGPLPATHLRHLGEVVHTFSHIKLTYQVYGLALEGQTPVTTVPPGARWLTQEEFHTAAVSTAMKKVFRVYQGQQPGTCMGSKRSQVSSPCSRKKPRMGQQVLDNFFRSHISTDAHSLNSAAQ [E79W] — higher, -0.0018
- MRKPRAAVGSGHRKQAASQEGRQKHAKNNSQAKPSACDGLARQPEEVVLQASVSSYHLFRDVAEVTAFRGSLLSWYDQYKRDLPWRRRAEDEMDLDRRAYAVWVSEVMLQQTQVATVINYYTGWMQKWPTLQDLASASLEEVNQLWAGLGYYSRGRRLQEGARKVVEELGGHMPRTAETLQQLLPGVGRYTAGAIASIAFGQATGVVDGNVARVLCRVRAIGADPSSTLVSQQLWGLAQQLVDPARPGDFNQAAMELGATVCTPQRPLCSQCPVESLCRARQRVEQEQLLASGSLSGSPDVEECAPNTGQCHLCLPPSEPWDQTLGVVNFPRKASRKPPREESSATCVLEQPGALGAQILLVQRPNSGLLAGLWEFPSVTWEPSEQLQRKALLQELQRWAGPLPATHLRHLGEVVHTFSHIKLTYQVYGLALEGQTPVTTVPPGARWLTQEEFHTAAVSTAMKKVFRVYQGQQPGTCMGSKRSQVSSPCSRKKPRMGQQVLDNFFRSHISTDAHSLNSAAQ [E79Y] — higher, -0.00762
- MRKPRAAVGSGHRKQAASQEGRQKHAKNNSQAKPSACDGLARQPEEVVLQASVSSYHLFRDVAEVTAFRGSLLSWYDQMKRDLPWRRRAEDEMDLDRRAYAVWVSEVMLQQTQVATVINYYTGWMQKWPTLQDLASASLEEVNQLWAGLGYYSRGRRLQEGARKVVEELGGHMPRTAETLQQLLPGVGRYTAGAIASIAFGQATGVVDGNVARVLCRVRAIGADPSSTLVSQQLWGLAQQLVDPARPGDFNQAAMELGATVCTPQRPLCSQCPVESLCRARQRVEQEQLLASGSLSGSPDVEECAPNTGQCHLCLPPSEPWDQTLGVVNFPRKASRKPPREESSATCVLEQPGALGAQILLVQRPNSGLLAGLWEFPSVTWEPSEQLQRKALLQELQRWAGPLPATHLRHLGEVVHTFSHIKLTYQVYGLALEGQTPVTTVPPGARWLTQEEFHTAAVSTAMKKVFRVYQGQQPGTCMGSKRSQVSSPCSRKKPRMGQQVLDNFFRSHISTDAHSLNSAAQ [E79M] — higher, -0.00235
- MRKPRAAVGSGHRKQAASQEGRQKHAKNNSQAKPSACDGLARQPEEVVLQASVSSYHLFRDVAEVTAFRGSLLSWYDQTKRDLPWRRRAEDEMDLDRRAYAVWVSEVMLQQTQVATVINYYTGWMQKWPTLQDLASASLEEVNQLWAGLGYYSRGRRLQEGARKVVEELGGHMPRTAETLQQLLPGVGRYTAGAIASIAFGQATGVVDGNVARVLCRVRAIGADPSSTLVSQQLWGLAQQLVDPARPGDFNQAAMELGATVCTPQRPLCSQCPVESLCRARQRVEQEQLLASGSLSGSPDVEECAPNTGQCHLCLPPSEPWDQTLGVVNFPRKASRKPPREESSATCVLEQPGALGAQILLVQRPNSGLLAGLWEFPSVTWEPSEQLQRKALLQELQRWAGPLPATHLRHLGEVVHTFSHIKLTYQVYGLALEGQTPVTTVPPGARWLTQEEFHTAAVSTAMKKVFRVYQGQQPGTCMGSKRSQVSSPCSRKKPRMGQQVLDNFFRSHISTDAHSLNSAAQ [E79T] — higher, 0.00587
- MRKPRAAVGSGHRKQAASQEGRQKHAKNNSQAKPSACDGLARQPEEVVLQASVSSYHLFRDVAEVTAFRGSLLSWYDQRKRDLPWRRRAEDEMDLDRRAYAVWVSEVMLQQTQVATVINYYTGWMQKWPTLQDLASASLEEVNQLWAGLGYYSRGRRLQEGARKVVEELGGHMPRTAETLQQLLPGVGRYTAGAIASIAFGQATGVVDGNVARVLCRVRAIGADPSSTLVSQQLWGLAQQLVDPARPGDFNQAAMELGATVCTPQRPLCSQCPVESLCRARQRVEQEQLLASGSLSGSPDVEECAPNTGQCHLCLPPSEPWDQTLGVVNFPRKASRKPPREESSATCVLEQPGALGAQILLVQRPNSGLLAGLWEFPSVTWEPSEQLQRKALLQELQRWAGPLPATHLRHLGEVVHTFSHIKLTYQVYGLALEGQTPVTTVPPGARWLTQEEFHTAAVSTAMKKVFRVYQGQQPGTCMGSKRSQVSSPCSRKKPRMGQQVLDNFFRSHISTDAHSLNSAAQ [E79R] — higher, 0.00654
- MRKPRAAVGSGHRKQAASQEGRQKHAKNNSQAKPSACDGLARQPEEVVLQASVSSYHLFRDVAEVTAFRGSLLSWYDQNKRDLPWRRRAEDEMDLDRRAYAVWVSEVMLQQTQVATVINYYTGWMQKWPTLQDLASASLEEVNQLWAGLGYYSRGRRLQEGARKVVEELGGHMPRTAETLQQLLPGVGRYTAGAIASIAFGQATGVVDGNVARVLCRVRAIGADPSSTLVSQQLWGLAQQLVDPARPGDFNQAAMELGATVCTPQRPLCSQCPVESLCRARQRVEQEQLLASGSLSGSPDVEECAPNTGQCHLCLPPSEPWDQTLGVVNFPRKASRKPPREESSATCVLEQPGALGAQILLVQRPNSGLLAGLWEFPSVTWEPSEQLQRKALLQELQRWAGPLPATHLRHLGEVVHTFSHIKLTYQVYGLALEGQTPVTTVPPGARWLTQEEFHTAAVSTAMKKVFRVYQGQQPGTCMGSKRSQVSSPCSRKKPRMGQQVLDNFFRSHISTDAHSLNSAAQ [E79N] — lower, -0.0384
- MRKPRAAVGSGHRKQAASQEGRQKHAKNNSQAKPSACDGLARQPEEVVLQASVSSYHLFRDVAEVTAFRGSLLSWYDQPKRDLPWRRRAEDEMDLDRRAYAVWVSEVMLQQTQVATVINYYTGWMQKWPTLQDLASASLEEVNQLWAGLGYYSRGRRLQEGARKVVEELGGHMPRTAETLQQLLPGVGRYTAGAIASIAFGQATGVVDGNVARVLCRVRAIGADPSSTLVSQQLWGLAQQLVDPARPGDFNQAAMELGATVCTPQRPLCSQCPVESLCRARQRVEQEQLLASGSLSGSPDVEECAPNTGQCHLCLPPSEPWDQTLGVVNFPRKASRKPPREESSATCVLEQPGALGAQILLVQRPNSGLLAGLWEFPSVTWEPSEQLQRKALLQELQRWAGPLPATHLRHLGEVVHTFSHIKLTYQVYGLALEGQTPVTTVPPGARWLTQEEFHTAAVSTAMKKVFRVYQGQQPGTCMGSKRSQVSSPCSRKKPRMGQQVLDNFFRSHISTDAHSLNSAAQ [E79P] — lower, -0.189
- MRKPRAAVGSGHRKQAASQEGRQKHAKNNSQAKPSACDGLARQPEEVVLQASVSSYHLFRDVAEVTAFRGSLLSWYDQQKRDLPWRRRAEDEMDLDRRAYAVWVSEVMLQQTQVATVINYYTGWMQKWPTLQDLASASLEEVNQLWAGLGYYSRGRRLQEGARKVVEELGGHMPRTAETLQQLLPGVGRYTAGAIASIAFGQATGVVDGNVARVLCRVRAIGADPSSTLVSQQLWGLAQQLVDPARPGDFNQAAMELGATVCTPQRPLCSQCPVESLCRARQRVEQEQLLASGSLSGSPDVEECAPNTGQCHLCLPPSEPWDQTLGVVNFPRKASRKPPREESSATCVLEQPGALGAQILLVQRPNSGLLAGLWEFPSVTWEPSEQLQRKALLQELQRWAGPLPATHLRHLGEVVHTFSHIKLTYQVYGLALEGQTPVTTVPPGARWLTQEEFHTAAVSTAMKKVFRVYQGQQPGTCMGSKRSQVSSPCSRKKPRMGQQVLDNFFRSHISTDAHSLNSAAQ [E79Q] — higher, -0.0185
- MRKPRAAVGSGHRKQAASQEGRQKHAKNNSQAKPSACDGLARQPEEVVLQASVSSYHLFRDVAEVTAFRGSLLSWYDQEARDLPWRRRAEDEMDLDRRAYAVWVSEVMLQQTQVATVINYYTGWMQKWPTLQDLASASLEEVNQLWAGLGYYSRGRRLQEGARKVVEELGGHMPRTAETLQQLLPGVGRYTAGAIASIAFGQATGVVDGNVARVLCRVRAIGADPSSTLVSQQLWGLAQQLVDPARPGDFNQAAMELGATVCTPQRPLCSQCPVESLCRARQRVEQEQLLASGSLSGSPDVEECAPNTGQCHLCLPPSEPWDQTLGVVNFPRKASRKPPREESSATCVLEQPGALGAQILLVQRPNSGLLAGLWEFPSVTWEPSEQLQRKALLQELQRWAGPLPATHLRHLGEVVHTFSHIKLTYQVYGLALEGQTPVTTVPPGARWLTQEEFHTAAVSTAMKKVFRVYQGQQPGTCMGSKRSQVSSPCSRKKPRMGQQVLDNFFRSHISTDAHSLNSAAQ [K80A] — higher, -7.55e-05
